Results reported in publication PMC8205527, “Structural basis for the coiled-coil architecture of human CtIP” (Open Biology, 2021).

Biological target: the molecule itself
Assay: SEC-SAXS; Superdex 200 Increase 3.2/300 in 20 mM Tris HCl 8.0, 300 mM NaCl; protein at 3–10 mg/ml; Guinier analysis, P(r), MONSA and BilboMD modelling

| Protein | stoichiometry N |
| --- | --- |
| CtIP-NTD (18–145) (domain or fragment, human, UniProt Q99708 18-145, looked up, also called CtIP N-terminal domain; source: E. coli BL21(DE3) Rosetta 2, purified (Ni-NTA, TEV cleavage, Strep-Tactin, SEC); not shown: His6, N-terminal, cleaved; MBP, N-terminal, cleaved) SDFKDLWTKLKECHDREVQGLQVKVTKLKQERILDAQRLEEFFTKNQQLREQQKVLHETIKVLEDRLRAGLCDRCAVTEEHMRKKQQEFENIRQQNLKLITELMNERNTLQEENKKLSEQLQQKIEND | 4 |
| CtIP-cNTD 31–145 (wild type) (domain or fragment, human, UniProt Q99708 31-145, looked up, also called wild-type CtIP-cNTD; C-terminal NTD; source: E. coli BL21(DE3) Rosetta 2, purified (Ni-NTA, TEV cleavage, Strep-Tactin, SEC); not shown: His6, N-terminal, cleaved; MBP, N-terminal, cleaved) HDREVQGLQVKVTKLKQERILDAQRLEEFFTKNQQLREQQKVLHETIKVLEDRLRAGLCDRCAVTEEHMRKKQQEFENIRQQNLKLITELMNERNTLQEENKKLSEQLQQKIEND | 2 |
